Results published in publication doi:10.1101/2025.03.24.644901, “Substrate recognition by human separase” (bioRxiv, 2025).

Target: T1, inactive apo-separase (separase^C2029S) (human, UniProt Q14674 1-2120, C2029S)
T1 construct: human separase, aa 1-2120, catalytic cysteine replaced with serine; AIL1 and the autocleavage sites are intact in this construct; also called apo-separase^C2029S; source: Sf9 (baculovirus), purified (StrepTactin, heparin, Superose 6)
Test: fluorescence polarisation; FlAsH-labelled MBP-SCC1 fragment as probe, inactive separase added; 25 mM HEPES pH 8.0, 100 mM NaCl, 0.1 mg/ml BSA, 0.01% NP40; 25°C; One Site-Total non-linear fit; three repeats
Details: both partners purified

T1 sequence (Q14674 whole entry C2029S, the tested form may be a part): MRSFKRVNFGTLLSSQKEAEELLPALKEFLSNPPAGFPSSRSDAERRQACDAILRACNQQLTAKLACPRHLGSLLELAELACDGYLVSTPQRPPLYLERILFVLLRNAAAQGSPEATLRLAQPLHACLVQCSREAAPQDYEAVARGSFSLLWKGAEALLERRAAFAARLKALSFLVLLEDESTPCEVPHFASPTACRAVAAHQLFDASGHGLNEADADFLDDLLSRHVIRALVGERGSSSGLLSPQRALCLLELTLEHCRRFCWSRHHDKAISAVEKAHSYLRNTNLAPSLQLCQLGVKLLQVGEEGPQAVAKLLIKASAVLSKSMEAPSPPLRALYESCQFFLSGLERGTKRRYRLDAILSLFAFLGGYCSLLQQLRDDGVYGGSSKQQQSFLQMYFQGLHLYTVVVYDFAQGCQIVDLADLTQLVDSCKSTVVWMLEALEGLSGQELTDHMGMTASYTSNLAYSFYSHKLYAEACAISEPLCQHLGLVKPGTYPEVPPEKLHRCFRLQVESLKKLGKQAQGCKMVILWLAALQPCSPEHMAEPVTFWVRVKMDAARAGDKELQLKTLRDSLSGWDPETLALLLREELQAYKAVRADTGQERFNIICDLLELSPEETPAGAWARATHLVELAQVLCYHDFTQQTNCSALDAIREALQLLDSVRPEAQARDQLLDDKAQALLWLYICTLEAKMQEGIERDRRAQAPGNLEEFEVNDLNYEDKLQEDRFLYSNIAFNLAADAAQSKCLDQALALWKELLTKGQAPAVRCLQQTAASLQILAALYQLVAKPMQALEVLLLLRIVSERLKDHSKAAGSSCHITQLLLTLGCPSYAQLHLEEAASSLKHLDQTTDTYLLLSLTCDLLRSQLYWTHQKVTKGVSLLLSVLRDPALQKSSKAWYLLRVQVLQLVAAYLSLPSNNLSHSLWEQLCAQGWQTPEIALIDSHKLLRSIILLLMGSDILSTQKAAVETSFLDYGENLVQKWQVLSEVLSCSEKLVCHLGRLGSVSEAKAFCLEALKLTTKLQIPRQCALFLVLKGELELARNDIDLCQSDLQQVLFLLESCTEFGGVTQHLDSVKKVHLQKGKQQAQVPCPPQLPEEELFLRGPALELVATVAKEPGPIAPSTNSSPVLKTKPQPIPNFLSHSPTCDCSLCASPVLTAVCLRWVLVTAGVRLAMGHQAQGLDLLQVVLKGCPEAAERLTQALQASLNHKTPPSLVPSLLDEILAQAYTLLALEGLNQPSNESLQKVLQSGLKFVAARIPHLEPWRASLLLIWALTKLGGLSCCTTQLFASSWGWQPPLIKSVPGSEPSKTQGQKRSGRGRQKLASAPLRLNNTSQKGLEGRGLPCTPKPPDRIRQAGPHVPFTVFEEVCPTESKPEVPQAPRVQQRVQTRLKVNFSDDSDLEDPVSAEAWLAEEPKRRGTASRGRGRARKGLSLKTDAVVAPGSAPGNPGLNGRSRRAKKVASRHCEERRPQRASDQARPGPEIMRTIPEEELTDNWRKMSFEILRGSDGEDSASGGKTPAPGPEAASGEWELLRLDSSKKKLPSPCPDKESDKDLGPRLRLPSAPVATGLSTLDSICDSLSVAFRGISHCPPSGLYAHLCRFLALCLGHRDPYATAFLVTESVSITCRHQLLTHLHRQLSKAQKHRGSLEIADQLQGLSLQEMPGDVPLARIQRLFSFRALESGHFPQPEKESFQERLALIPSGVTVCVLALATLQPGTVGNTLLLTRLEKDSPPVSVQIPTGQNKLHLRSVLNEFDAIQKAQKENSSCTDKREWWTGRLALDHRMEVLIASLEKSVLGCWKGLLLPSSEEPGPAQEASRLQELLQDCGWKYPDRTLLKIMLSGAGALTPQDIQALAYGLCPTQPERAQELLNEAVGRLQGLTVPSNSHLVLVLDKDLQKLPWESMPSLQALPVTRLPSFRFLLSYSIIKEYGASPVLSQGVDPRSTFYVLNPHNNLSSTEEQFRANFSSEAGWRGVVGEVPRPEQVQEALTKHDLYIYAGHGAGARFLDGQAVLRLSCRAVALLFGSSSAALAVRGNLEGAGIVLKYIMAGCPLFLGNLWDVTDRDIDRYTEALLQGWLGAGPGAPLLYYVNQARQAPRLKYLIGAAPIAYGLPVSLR

B1: MBP-SCC1 (aa 350-550) with C-terminal tetracysteine motif, FlAsH-labelled (domain or fragment, human, UniProt O60216 350-550, looked up)
chain: TLDLAPPTKKLMMWKETGGVEKLFSLPAQPLWNNRLLKLFTRCLTPLVPEDLRKRRKGGEADNLDEFLKEFENPEVPREDQQQQHQQRDVIDEPIIEEPSRLQESVMEASRTNIDESAMPPPPPQGVKRKAGQIDPEPVMPPQQVEQMEIPPVELPPEEPPNICQLIPELELLPEKEKEKEKEKEDDEEEEDEDASGGDQD
modifications: FlAsH-EDT2 fluorescent dye on the C-terminal tetracysteine motif
notes: human SCC1/RAD21, aa 350-550 (holds cleavage site 2, R427); also called SCC1^350–550; SCC1 site 2 (aa 350-550); source: E. coli BL21 (DE3), purified (Hitrap MBP, Superdex 200); not shown: 6xHis-MBP, N-terminal, kept
B1: binds.
